Data: patent publication US10233249B2, “Antibodies and methods for treating estrogen receptor-associated diseases” (BEIJING SHENOGEN PHARMA GROUP LTD., priority 2013, dated 2019)
“Also recorded” adds a separate entry of the source.

What was measured:
[1] = molecular target: T1, ER-α36 (Homo sapiens, UniProt P03372, I452L); assay: ELISA binding specificity of SNGmB1; conditions: plate coated at 1 μg/ml, antibody 0.004-10 μg/ml
T1 construct: made in house; host or cells: E. coli BL21 (DE3)
T1 sequence (P03372 166-310 isoform P03372-4 I279L): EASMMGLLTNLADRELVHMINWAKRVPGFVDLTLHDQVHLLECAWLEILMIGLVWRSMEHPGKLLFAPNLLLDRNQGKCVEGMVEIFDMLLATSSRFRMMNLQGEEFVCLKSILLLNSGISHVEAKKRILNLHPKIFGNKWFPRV
Experimental: The binding specificity of SNGmB1 was assessed using ELISA assay. Five different proteins were used to coat the assay plate at 1 μg/ml. After extensive blocking, the SNGmB1 antibody of different concentrations (10, 2, 0.4, 0.08 and 0.016, 0.004 μg/ml) was added to the assay plate and incubated for 1.5 hours, followed by detection of complex formation using HRP (horse radish peroxidase) labeled anti-mouse IgG Fc (Invitrogen). An example of the data was shown below in FIG. 3. […] The key epitope residues in ER-α36 F domain for SNGmB1 binding have been mapped using both PepScan and Alanine Scan (see Example 5).

[2] = molecular target: T2, membrane bound ER-α36 protein in MCF-7 cells (Homo sapiens, UniProt P03372); assay: Immunofluorescence analysis of MCF-7 mammosphere; assay type: cell-based
T2 construct: endogenous in cells; host or cells: MCF7
T2 sequence (P03372 1-310 isoform P03372-4): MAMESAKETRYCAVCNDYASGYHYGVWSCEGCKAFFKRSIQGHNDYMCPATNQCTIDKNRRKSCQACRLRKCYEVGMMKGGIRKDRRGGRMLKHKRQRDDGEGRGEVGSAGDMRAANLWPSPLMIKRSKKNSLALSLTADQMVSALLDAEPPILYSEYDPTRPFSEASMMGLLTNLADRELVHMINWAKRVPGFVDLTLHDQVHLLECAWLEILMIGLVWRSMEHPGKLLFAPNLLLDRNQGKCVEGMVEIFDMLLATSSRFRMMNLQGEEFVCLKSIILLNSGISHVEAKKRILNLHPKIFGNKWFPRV
Experimental: The ability of SNGmB1 to detect membrane bound ER-α36 protein in MCF-7 cells was assessed using immunostaining. MCF-7 mammosphere was formed and immunostaining was performed by steps as follows:
1. MCF-7 cells were cultured in DMEM without phenol red for 2 days and stained with 7-aminoactinomycin D (7-AAD) followed by FACS sorting. The sorted cells were cultured in DMEM/F12 without phenol red medium (Gibo) with B27 (Invitrogen), EGF (BD Biosciences) and bFGF (BD Biosciences) for 6 days and the MCF-7 mammosphere was formed. 2. MCF-7 mammosphere was centrifuged at 1000 rpm for 4 min, and the supernatant was removed. 3. The mammosphere was washed with 500 μl PBS and was transferred to a 1.5 ml EP tube before centrifugation at 1000 rpm for 4 min, and the supernatant was discarded. 4. The precipitate was fixed with 500 μl paraformaldehyde (4%) for 20 min (or overnight), and was centrifuged at 1000 rpm for 4 min to move the supernatant. 5. The precipitate was washed with 500 μl PBS and centrifuged at 1000 rpm for 4 min, and the supernatant was discarded, wash three times using PBS. 6. The supernatant was removed and the precipitate was incubated with 50 μl goat serum blocking solution at 37° C. for 30 min; after centrifugation at 1000 rpm for 4 min, the supernatant was discarded. 7. […] The mammospheres was transferred to small observation dish, and stored at 4° C. to be detected.

[3] = tested on: MCF7 mammosphere formation; assay: Estradiol stimulated MCF7 mammosphere formation assay; assay type: cell-based, human
Experimental: The impact of antibody on the formation and growth of cells was evaluated by Estradiol stimulated MCF7 mammosphere formation assay.
MCF-7 (ATCC) maintained in DMEM medium containing 10% FBS (Gibco) have been passaged 2-3 times prior to assay and are 60% confluence. MCF-7 cells were washed with warm phenol red-free DMEM twice and then grew in phenol red-free DMEM with 2.5% charcoal stripped FBS (CFBS) for 48 hours. The cells were then trypsinized and passed through 40-μm filters to remove cell clumps, followed by stained with 7-AAD and 800 cells were plated into each well of ultra-low binding 24 well plates (Corning Inc.) in 800 μl mammosphere growth medium consisting of serum free DMEM-F12 (Gibco) supplemented with 5 μg/ml insulin, 0.4% bovine serum albumin (Sigma), B27 (Invitrogen), 20 ng/ml EGF and bFGF (BDBiosciences). For the evaluation of antibody activity, 1 nM estradiol in DMSO was added to each well to induce mammosphere formation after adding of antibodies.
MCF7 cells were grown in the presence of 1 nM estradiol and PBS, human IgG, mouse IgG2b, recombinant ER-α36 ligand binding domain Fc fusion protein, or SNGmB1. DMSO was used as negative control. After 72 hr treatment, the number of mammosphere in culture was counted. […]
The antibody activity was also evaluated in a longer term of 7 days by following methods: MCF7 mammosphere was prepared using same method described above. […]

[4] = tested on: BCAP37 breast cancer xenograft; assay: BCAP37 breast cancer xenograft model; assay type: in vivo; conditions: NOD-SCID mice, 1.25, 5 and 20 mg/kg SNGmB1, 3 mg/kg Herceptin, 17 days
Experimental: The ability of anti-ER-α36 antibody in inhibiting human tumor cell growth in Xenograft model was assessed using BCAP37 breast cancer model. […] The cells were implanted into NOD-SCID mice. […] After 17 days of treatment, the tumors were excised, and both tumor weight and volume were measured.

binding to Fc-LBD protein [1]: bind to
B1: SNGmB1: mouse monoclonal anti-ER-α36 antibody (mIgG2b), light chain SEQ ID NO: 16, heavy chain SEQ ID NO: 18 (antibody, listed as Mus musculus)
heavy: QAYLQQSGAELVRPGASVKMSCKASGYTFTSHNMHWIKQTPRQGLEWIGAIHPVNGDTAYNQKFKGKATLTVDKSSSTAYLQLSSLTSEESAVYFCAREGYGSVDYWGQGTTLTVSSAKTTPPSVYPLAPGCGDTTGSSVTLGCLVKGYFPESVTVTWNSGSLSSSVHTFPALLQSGLYTMSSSVTVPSSTWPSQTVTCSVAHPASSTTVDKKLEPSGPISTINPCPPCKECHKCPAPNLEGGPSVFIFPPNIKDVLMISLTPKVTCVVVDVSEDDPDVQISWFVNNVEVHTAQTQTHREDYNSTIRVVSTLPIQHQDWMSGKEFKCKVNNKDLPSPIERTISKIKGLVRAPQVYILPPPAEQLSRKDVSLTCLVVGFNPGDISVEWTSNGHTEENYKDTAPVLDSDGSYFIYSKLNMKTSKWEKTDSFSCNVRHEGLKNYYLKKTISRSPGK
light: ETTVTQSPASLSMTIGEKVTIRCITSTDIDDDMNWYRKKPGQPPKLLISEGNTLRPGVPSRFSSSGYGTDFVFTIENMLSEDVADYYCLQSDNLPLTFGAGTKLELKRADAAPTVSIFPPSSEQLTSGGASVVCFLNNFYPKDINVKWKIDGSERQNGVLNSWTDQDSKDSTYSMSSTLTLTKDEYERHNSYTCEATHKTSTSPIVKSFNRNEC
immunostaining of membrane bound ER-α36 on MCF-7 mammospheres [2]: stained the MCF-7 mammospheres in a dose-dependent manner; also recorded: can detect membrane bound ER-α36 on MCF7
inhibition of estradiol stimulated MCF7 mammosphere formation ([3]; 1 nM estradiol, 72 hr treatment, compared with human IgG and mouse IgG2b): significantly inhibited; also recorded: can inhibit on MCF7 mammosphere formation and growth
inhibition of MCF7 mammosphere formation, longer term ([3]; 7 days, estradiol 100 μM or 3 nM, different antibody concentrations, compared with mIgG): better ability in inhibiting mammosphere formation compared with mIgG; also recorded: can inhibit on MCF7 mammosphere formation and growth at different concentrations
inhibition of tumor growth [4]: inhibit tumor growth in a dose-dependent manner; also recorded: inhibited tumor cell growth in a does-dependent manner
